Laboratory results from patent EP4431525A1 (Anaveon AG, dated 2024).
Substitutions are numbered along the chain they refer to.

B1: z2-XVT458-m1 (antibody, V domains shown)
VH: QVQLVQSGAEVKKPGASVKVSCKASGYTFTNFYIHWVRQAPGQGLEWMGSIYPNYGFTAYNQKFKDRVTMTVDTSTSTAYMELRSLRSDDTAVYYCARGYSYAMDYWGQGTTVTVSS
VL: DIQMTQSPSSVSASVGDRVTITCSASQGIWGDLNWYQQKPGKAPKLLIYHTSQLHSDVPSRFSGSGSGTDFTLTISSLQPEDFATYYCQGYSKDLLTFGGGTKLEIK
notes: IgG format; also called XVT458-z2-m1; XVT458-z2-ml
B2: z2-XVT458-m6 (antibody, V domains shown)
VH: B1 VH with F57I
VL: B1 VL with W30S
notes: IgG format; also called XVT458-z2-m6; XVT458-Z2-m6
B3: z2-XVT458-m3 (antibody, V domains shown)
VH: B1 VH with S50R, F57I
VL: B1 VL with W30S, L54R
notes: IgG format; also called XVT458-z2-m3; XVT458-Z2-M3

biological target: T1, hPD-1 Avi-Tag Biotin (AcroBiosystems, PD1-H82E4) (human, UniProt Q15116 25-167, biotin on Avi-Tag); experiment: IgG format; ELISA / SPR
T1 construct: bought; also called recombinant hPD-1
T1 sequence (Q15116 25-167 limits assumed): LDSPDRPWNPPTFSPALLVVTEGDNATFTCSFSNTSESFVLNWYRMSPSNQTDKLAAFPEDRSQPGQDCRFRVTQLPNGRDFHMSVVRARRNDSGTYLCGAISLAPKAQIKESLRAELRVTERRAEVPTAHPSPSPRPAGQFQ

Binding result, binds:
B1
B2
B3

biological target: T2, human PD-1 expressed on cells (human, UniProt Q15116 25-288); experiment: Retrogenix cell microarray, HEK293 cells
T2 construct: whole, on cells; also called hPD-1; PDCD1
T2 sequence (Q15116 25-288): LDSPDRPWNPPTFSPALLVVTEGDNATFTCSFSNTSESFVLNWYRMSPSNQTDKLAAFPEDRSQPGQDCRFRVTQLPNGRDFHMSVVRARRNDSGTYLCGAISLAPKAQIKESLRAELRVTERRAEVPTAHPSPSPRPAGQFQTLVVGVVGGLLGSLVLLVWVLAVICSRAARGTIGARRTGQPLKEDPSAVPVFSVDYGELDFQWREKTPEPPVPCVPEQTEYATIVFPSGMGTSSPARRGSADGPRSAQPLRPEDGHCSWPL

Binding result, binds:
B1
B2
B3
